Experimental data taken from paper PMC10784507, “Disordered-to-ordered transitions in assembly factors allow the complex II catalytic subunit to switch binding partners” (Nature Communications, 2024).
Substitutions are numbered along the chain they refer to.

Columns and labels:
[1] = target: T1, holo-SDHA-SDHAF2 complex (preformed from purified proteins) (human, UniProt P31040 43-664; Q9NX18 37-166, covalently attached FAD (residue not stated)); experiment: pull-down; preformed holo-SDHA-SDHAF2 (2 µM, His6 on SDHA) incubated with SDHAF4 or its variants, with or without 5 mM fumarate, 30 min 25 °C, then held on Ni-NTA agarose; SDS-PAGE with Coomassie, western blot for the truncated variants; details: both partners purified
T1 construct: human SDHAF2, mature, residues 37-166; also called holo-SDHA-AF2; SDHA-AF2 complex; source: E. coli BL21(DE3) proteins, purified; not shown: His6, N-terminal, kept; His6, N-terminal, cleaved
T1 sequence (P31040 43-664, one chain of several): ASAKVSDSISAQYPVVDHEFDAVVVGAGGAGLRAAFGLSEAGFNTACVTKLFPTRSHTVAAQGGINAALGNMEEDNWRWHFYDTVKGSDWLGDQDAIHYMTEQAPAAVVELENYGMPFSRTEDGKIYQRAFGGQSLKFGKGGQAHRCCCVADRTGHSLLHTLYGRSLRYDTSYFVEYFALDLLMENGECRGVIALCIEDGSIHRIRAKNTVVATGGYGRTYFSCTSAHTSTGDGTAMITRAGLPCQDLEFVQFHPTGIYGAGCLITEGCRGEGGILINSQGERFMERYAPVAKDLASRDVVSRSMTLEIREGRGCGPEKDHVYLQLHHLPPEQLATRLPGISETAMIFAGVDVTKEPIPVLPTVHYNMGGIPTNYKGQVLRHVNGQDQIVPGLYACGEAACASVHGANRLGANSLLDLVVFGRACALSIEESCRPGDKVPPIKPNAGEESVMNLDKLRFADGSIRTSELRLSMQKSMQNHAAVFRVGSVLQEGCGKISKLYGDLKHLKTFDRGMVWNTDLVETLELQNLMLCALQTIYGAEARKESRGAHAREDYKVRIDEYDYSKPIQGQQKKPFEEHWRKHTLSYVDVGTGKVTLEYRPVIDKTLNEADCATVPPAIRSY

[2] = target: T2, holo-SDHA with covalently attached FAD (human, UniProt P31040 43-664, covalently attached FAD (residue not stated)); experiment: crystal structure; SDHA-AF2-AF4: holo-SDHA-SDHAF2 with His6-SDHAF4, 5 h at 4 °C, SEC; crystals in 0.2 M ammonium citrate tribasic pH 8.0, 20% PEG 3,350, 1 mM DTT, 25 °C; details: both partners purified
T2 construct: also called SDHA with covalent FAD; His6-SDHA; source: E. coli BL21(DE3), purified; covalent FAD formed in vitro (apo-SDHA with SDHAF2, FAD and fumarate) or by co-expression with SDHAF2; not shown: His6, N-terminal, kept
T2 sequence (P31040 43-664): as the sequence (P31040 43-664, one chain of several) above

[3] = target: T3, Human SDHA-AF2 complex (co-expressed, purified) (human, UniProt P31040 43-664; Q9NX18 37-166, covalently attached FAD (residue not stated)); experiment: as above; details: both partners purified
T3 construct: human SDHAF2, mature, residues 37-166; also called holo-SDHA-SDHAF2 complex; holo-SDHA-AF2; not shown: His6, N-terminal, kept
T3 sequence (P31040 43-664, one chain of several): as above

[4] = target: the molecule itself; experiment: native gel or EMSA; purified His6-SDHAF4^30-108, dilution series from 5 mg/ml, on 10% native and 10% SDS gels
[5] = target: T2, holo-SDHA with covalently attached FAD; experiment: pull-down; preformed holo-SDHA-SDHAF2 (2 µM, His6 on SDHA) incubated with SDHAF4 or its variants, with or without 5 mM fumarate, 30 min 25 °C, then held on Ni-NTA agarose; SDS-PAGE with Coomassie, western blot for the truncated variants; details: both partners purified
His6-apo-SDHA = target: T4, His6-apo-SDHA (human, UniProt P31040 43-664); experiment: pull-down; Ni-NTA pull-down, pairwise; His6-apo-SDHA (2.6 µM) with SDHAF2 (6.4 µM) or FLAG-SDHAF4 (8 µM), no FAD; 40 mM HEPES pH 7.5, 0.5 mM DTT, 30 min 25 °C; SDS-PAGE, Coomassie; details: both partners purified
T4 construct: the same molecule with 75 µM FAD added is the form with non-covalent FAD; also called His-SDHA; not shown: His6, N-terminal, kept
T4 sequence (P31040 43-664): as the sequence (P31040 43-664, one chain of several) above

B1: SDHAF4^56-108 (domain or fragment)
chain: not shown
notes: human SDHAF4, residues 56-108; also called truncated FLAG-SDHAF4 variant
percent of SDHAF2 displaced from the SDHA-AF2 complex [1]: ~50%

B2: SDHAF4^67-108 (domain or fragment)
chain: not shown
notes: human SDHAF4, residues 67-108; also called truncated FLAG-SDHAF4 variant
percent of SDHAF2 displaced from the SDHA-AF2 complex [1]: ~50%

B3: SDHAF4^ΔF108 (natural protein, human, UniProt Q5VUM1 30-108, looked up)
chain: LRKTSSSQGGKSELVKQSLKKPKLPEGRFDAPEDSHLEKEPLEKFPDDVNPVTKEKGGPRGPEPTRYGDWERKGRCID
notes: human SDHAF4, residues 30-108 without the C-terminal F108, made by modification of the pQT-SDHAF4 parent vector; The pQT vector adds a TEV-cleavable His tag; source: E. coli BL21(DE3), purified
binding result [1]: binds

B4: SDHAF4^D107A (natural protein, human, UniProt Q5VUM1 30-108, looked up)
chain: LRKTSSSQGGKSELVKQSLKKPKLPEGRFDAPEDSHLEKEPLEKFPDDVNPVTKEKGGPRGPEPTRYGDWERKGRCIAF
notes: human SDHAF4, residues 30-108, made by modification of the pQT-SDHAF4 parent vector; The pQT vector adds a TEV-cleavable His tag; source: E. coli BL21(DE3), purified
binding result [1]: binds

B5: His6-SDHAF4^30-108 (natural protein, human, UniProt Q5VUM1 30-108, looked up)
chain: B4 chain with A78D
notes: human SDHAF4, residues 30-108, in the pQT vector (pQT-SDHAF4); also called His-SDHAF4; purified SDHAF4; source: E. coli BL21(DE3), purified (Ni-NTA, SEC); not shown: His6, N-terminal, kept
binding result [2]: binds | binding result [3]: binds | binding result [4]: binds

B6: SDHAF4^F108A (natural protein, human, UniProt Q5VUM1 30-108, looked up)
chain: B4 chain with A78D, F79A
notes: as for B4
binding result [1]: binds

B7: SDHAF4^D107T (natural protein)
chain: not shown
notes: as for B4
binding result [1]: binds

B8: SDHAF4^D107N (natural protein, human, UniProt Q5VUM1 30-108, looked up)
chain: B4 chain with A78N
notes: as for B4
binding result [1]: binds

B9: SDHAF4^77-108 (domain or fragment)
chain: not shown
notes: human SDHAF4, residues 77-108; also called truncated FLAG-SDHAF4 variant
percent of SDHAF2 displaced from the SDHA-AF2 complex [1]: ~50%

B10: FLAG-SDHAF4 (mature, residues 20-108) (natural protein, human, UniProt Q5VUM1 20-108, looked up)
chain: AARSPLLCHSLRKTSSSQGGKSELVKQSLKKPKLPEGRFDAPEDSHLEKEPLEKFPDDVNPVTKEKGGPRGPEPTRYGDWERKGRCIDF
notes: human SDHAF4, mature protein, residues 20-108, codon-optimised synthetic gene in pST50Trc3-FLAG; also called full-length SDHAF4; wild-type SDHAF4; source: E. coli BL21(DE3), purified (DEAE-Sepharose, filtration)
percent of SDHAF2 displaced from the SDHA-AF2 complex [1]: ~80%

B11: SDHAF2 (residues 37-166, His6 tag removed with TEV protease) (natural protein, human, UniProt Q9NX18 37-166, looked up)
chain: GDSPTDSQKDMIEIPLPPWQERTDESIETKRARLLYESRKRGMLENCILLSLFAKEHLQHMTEKQLNLYDRLINEPSNDWDIYYWATEAKPAPEIFENEVMALLRDFAKNKNKEQRLRAPDLEYLFEKPR
notes: human SDHAF2, mature, residues 37-166; source: E. coli BL21(DE3), purified; His6 tag removed with TEV protease; not shown: His6, N-terminal, cleaved
binding result [5]: binds | binding result (His6-apo-SDHA): binds
